# Laboratory results as given in article PMC12267109, “The enzyme kinetics of branched‐chain fatty acid synthesis of metazoan fatty acid synthase” (Protein Science : A Publication of the Protein Society, 2025).
# Assays:
# [1] = molecular target: KS-MAT^S581A didomain of murine FAS (functional MAT knockout) (murine)
# [2] = system: CC(=O)SCCNC(=O)CCNC(=O)[C@H](O)C(C)(C)COP(=O)(O)OP(=O)(O)OC[C@H]1O[C@@H](n2cnc3c(N)ncnc32)[C@H](O)[C@@H]1OP(=O)(O)O; test: purified protein; settings: NADPH substrates likely compete in the malonyl-acetyl transferase (MAT) binding pocket
Substance,"Inhibition constant K i (substrate inhibition on titration of decanoyl-ACP at constant metmal-ACP; KS elongation activity by the enzyme-coupled MabA assay, apparent constant) [1] [µM]",Km [2] [µM]
decanoyl-acyl carrier protein (ACP) (domain or fragment),270,–
"metazoan fatty acid synthase (mFAS), murine FAS (Mus musculus)",–,69 ± 12
